In patent US20180155451A1 (published 2018):

T1: FcγRIIb (human, UniProt P31994 43-217)
T1 construct: extracellular domain; also called FcgRIIb; 2b; not shown: His tag at the C terminus
T1 sequence (looked up): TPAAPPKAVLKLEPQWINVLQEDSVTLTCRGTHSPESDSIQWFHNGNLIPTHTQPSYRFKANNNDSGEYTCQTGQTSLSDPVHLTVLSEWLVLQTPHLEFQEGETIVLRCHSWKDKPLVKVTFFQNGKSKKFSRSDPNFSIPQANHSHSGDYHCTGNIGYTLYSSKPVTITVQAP

B1: GpH7-A5/GpH7-B3 variant Q295_13S/GpL16-k0 (antibody, human IgG1, kappa)
heavy 1: not shown
heavy 2: not shown
light: DIVMTQSPLSLPVTPGEPASISCQASESLVHSNRNTYLHWYLQKPGQSPQLLIYKVSNRFSGVPDRFSGSGSGTDFTLKISRVEAEDVGVYYCSQNTHVPPTFGQGTKVEIERTVAAPSVFIFPPSDEQLKSGTASVVCLLNNFYPREAKVQWKVDNALQSGNSQESVTEQDSKDSTYSLSSTLTLSKADYEKHKVYACEVTHQGLSSPVTKSFNRGEC
notes: He Ab: mutation only in the GpH7-B3 H chain; EU numbering; also called He Ab
B2: GpH7-A5/GpH7-B3 variant Q295_16H/GpL16-k0 (antibody, human IgG1, kappa)
heavy 1: not shown
heavy 2: not shown
light: B1 light
notes: as for B1
B3: GpH7-A5/GpH7-B3 variant Y296_14T/GpL16-k0 (antibody, human IgG1, kappa)
heavy 1: not shown
heavy 2: not shown
light: B1 light
notes: as for B1
B4: GpH7-A5/GpH7-B3 variant Y296_06M/GpL16-k0 (antibody, human IgG1, kappa)
heavy 1: not shown
heavy 2: not shown
light: B1 light
notes: as for B1
B5: GpH7-A5/GpH7-B3 variant S298_01G/GpL16-k0 (antibody, human IgG1, kappa)
heavy 1: not shown
heavy 2: not shown
light: B1 light
notes: as for B1
B6: GpH7-A5/GpH7-B3 variant Q295_18N/GpL16-k0 (antibody, human IgG1, kappa)
heavy 1: not shown
heavy 2: not shown
light: B1 light
notes: as for B1
B7: GpH7-A5/GpH7-B3 variant Q295_14T/GpL16-k0 (antibody, human IgG1, kappa)
heavy 1: not shown
heavy 2: not shown
light: B1 light
notes: as for B1
B8: GpH7-A5/GpH7-B3 variant Y296_07I/GpL16-k0 (antibody, human IgG1, kappa)
heavy 1: not shown
heavy 2: not shown
light: B1 light
notes: as for B1
B9: GpH7-A5/GpH7-B3 variant S298_11K/GpL16-k0 (antibody, human IgG1, kappa)
heavy 1: not shown
heavy 2: not shown
light: B1 light
notes: as for B1
B10: GpH7-A5/GpH7-B3 variant S298_07I/GpL16-k0 (antibody, human IgG1, kappa)
heavy 1: not shown
heavy 2: not shown
light: B1 light
notes: as for B1
B11: GpH7-A5/GpH7-B3 variant Y296_18N/GpL16-k0 (antibody, human IgG1, kappa)
heavy 1: not shown
heavy 2: not shown
light: B1 light
notes: as for B1
B12: GpH7-A5/GpH7-B3 variant S298_10E/GpL16-k0 (antibody, human IgG1, kappa)
heavy 1: not shown
heavy 2: not shown
light: B1 light
notes: as for B1
B13: GpH7-A5/GpH7-B3 variant Y296_03V/GpL16-k0 (antibody, human IgG1, kappa)
heavy 1: not shown
heavy 2: not shown
light: B1 light
notes: as for B1
B14: GpH7-A5/GpH7-B3 variant S298_02A/GpL16-k0 (antibody, human IgG1, kappa)
heavy 1: not shown
heavy 2: not shown
light: B1 light
notes: as for B1
B15: GpH7-A5/GpH7-B3 variant Y296_10E/GpL16-k0 (antibody, human IgG1, kappa)
heavy 1: not shown
heavy 2: not shown
light: B1 light
notes: as for B1
B16: GpH7-A5/GpH7-B3 variant Y296_04F/GpL16-k0 (antibody, human IgG1, kappa)
heavy 1: not shown
heavy 2: not shown
light: B1 light
notes: as for B1
B17: GpH7-A5/GpH7-B3 variant Y296_11K/GpL16-k0 (antibody, human IgG1, kappa)
heavy 1: not shown
heavy 2: not shown
light: B1 light
notes: as for B1
B18: GpH7-A5/GpH7-B3 variant S298_18N/GpL16-k0 (antibody, human IgG1, kappa)
heavy 1: not shown
heavy 2: not shown
light: B1 light
notes: as for B1
B19: GpH7-A5/GpH7-B3 variant Y296_19Q/GpL16-k0 (antibody, human IgG1, kappa)
heavy 1: not shown
heavy 2: not shown
light: B1 light
notes: as for B1
B20: GpH7-A5/GpH7-B3 variant Y296_13S/GpL16-k0 (antibody, human IgG1, kappa)
heavy 1: not shown
heavy 2: not shown
light: B1 light
notes: as for B1
B21: GpH7-A5/GpH7-B3 variant Y296_08L/GpL16-k0 (antibody, human IgG1, kappa)
heavy 1: not shown
heavy 2: not shown
light: B1 light
notes: as for B1
B22: GpH7-A5/GpH7-B3 variant Y296_01G/GpL16-k0 (antibody, human IgG1, kappa)
heavy 1: not shown
heavy 2: not shown
light: B1 light
notes: as for B1
B23: GpH7-A5/GpH7-B3 variant S298_16H/GpL16-k0 (antibody, human IgG1, kappa)
heavy 1: not shown
heavy 2: not shown
light: B1 light
notes: as for B1
B24: GpH7-A5/GpH7-B3 variant Y296_16H/GpL16-k0 (antibody, human IgG1, kappa)
heavy 1: not shown
heavy 2: not shown
light: B1 light
notes: as for B1
B25: GpH7-A5/GpH7-B3 variant Y296_02A/GpL16-k0 (antibody, human IgG1, kappa)
heavy 1: not shown
heavy 2: not shown
light: B1 light
notes: as for B1
B26: GpH7-A5/GpH7-B3 variant S298_14T/GpL16-k0 (antibody, human IgG1, kappa)
heavy 1: not shown
heavy 2: not shown
light: B1 light
notes: as for B1
B27: GpH7-A5/GpH7-B3 variant S298_03V/GpL16-k0 (antibody, human IgG1, kappa)
heavy 1: not shown
heavy 2: not shown
light: B1 light
notes: as for B1
B28: GpH7-A5/GpH7-B3 variant Y296_12R/GpL16-k0 (antibody, human IgG1, kappa)
heavy 1: not shown
heavy 2: not shown
light: B1 light
notes: as for B1
B29: GpH7-A5/GpH7-B3 variant S298_12R/GpL16-k0 (antibody, human IgG1, kappa)
heavy 1: not shown
heavy 2: not shown
light: B1 light
notes: as for B1
B30: GpH7-A5/GpH7-B3 variant Q295_15Y/GpL16-k0 (antibody, human IgG1, kappa)
heavy 1: not shown
heavy 2: not shown
light: B1 light
notes: as for B1
B31: GpH7-A5/GpH7-B3 variant S298_15Y/GpL16-k0 (antibody, human IgG1, kappa)
heavy 1: not shown
heavy 2: not shown
light: B1 light
notes: as for B1
B32: GpH7-A5/GpH7-B3 variant S298_04F/GpL16-k0 (antibody, human IgG1, kappa)
heavy 1: not shown
heavy 2: not shown
light: B1 light
notes: as for B1
B33: GpH7-A5/GpH7-B3 variant S298_09D/GpL16-k0 (antibody, human IgG1, kappa)
heavy 1: not shown
heavy 2: not shown
light: B1 light
notes: as for B1
B34: GpH7-A5/GpH7-B3 variant Y296_09D/GpL16-k0 (antibody, human IgG1, kappa)
heavy 1: not shown
heavy 2: not shown
light: B1 light
notes: as for B1

Molecular target: T1, FcγRIIb
Assay: SPR (Biacore), captured antibody, soluble FcγR; relative to GpH7-A5/GpH7-B3/GpL16-k0

He/Con_2b	Binder
56.9 relative, HeCon Ab = 100	B1
62.7 relative, HeCon Ab = 100	B2
88.2 relative, HeCon Ab = 100	B3
87.8 relative, HeCon Ab = 100	B4
80.1 relative, HeCon Ab = 100	B5
64.9 relative, HeCon Ab = 100	B6
66.8 relative, HeCon Ab = 100	B7
84.3 relative, HeCon Ab = 100	B8
61.3 relative, HeCon Ab = 100	B9
70.6 relative, HeCon Ab = 100	B10
91.5 relative, HeCon Ab = 100	B11
47.6 relative, HeCon Ab = 100	B12
79.3 relative, HeCon Ab = 100	B13
73.4 relative, HeCon Ab = 100	B14
98 relative, HeCon Ab = 100	B15
99.2 relative, HeCon Ab = 100	B16
72.8 relative, HeCon Ab = 100	B17

He/Con_2b	Binder
48.1 relative, HeCon Ab = 100	B18
89.3 relative, HeCon Ab = 100	B19
86.3 relative, HeCon Ab = 100	B20
82.3 relative, HeCon Ab = 100	B21
79.3 relative, HeCon Ab = 100	B22
63.5 relative, HeCon Ab = 100	B23
92.2 relative, HeCon Ab = 100	B24
82 relative, HeCon Ab = 100	B25
77.9 relative, HeCon Ab = 100	B26
64.5 relative, HeCon Ab = 100	B27
79.5 relative, HeCon Ab = 100	B28
57.8 relative, HeCon Ab = 100	B29
65.4 relative, HeCon Ab = 100	B30
61.4 relative, HeCon Ab = 100	B31
65.4 relative, HeCon Ab = 100	B32
48.3 relative, HeCon Ab = 100	B33
98.9 relative, HeCon Ab = 100	B34

Molecular target: T2, FcγRIa (human, UniProt P12314 16-292)
T2 construct: extracellular domain; also called FcgRI; 1a; not shown: His tag at the C terminus
Assay: as above

T2 sequence (P12314 16-292): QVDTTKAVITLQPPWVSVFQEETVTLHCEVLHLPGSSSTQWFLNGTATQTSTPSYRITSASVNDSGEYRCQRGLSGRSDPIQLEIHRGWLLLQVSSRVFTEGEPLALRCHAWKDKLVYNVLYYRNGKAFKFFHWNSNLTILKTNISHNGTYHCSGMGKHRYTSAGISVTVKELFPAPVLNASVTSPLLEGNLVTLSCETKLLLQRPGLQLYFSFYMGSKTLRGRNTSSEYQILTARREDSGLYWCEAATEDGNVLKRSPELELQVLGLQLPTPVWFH

He/Con_1a	Binder
102 relative, HeCon Ab = 100	B1
102 relative, HeCon Ab = 100	B2
105 relative, HeCon Ab = 100	B3
104 relative, HeCon Ab = 100	B4
104 relative, HeCon Ab = 100	B5
102 relative, HeCon Ab = 100	B6
103 relative, HeCon Ab = 100	B7
104 relative, HeCon Ab = 100	B8
109 relative, HeCon Ab = 100	B9
107 relative, HeCon Ab = 100	B10
106 relative, HeCon Ab = 100	B11
108 relative, HeCon Ab = 100	B12
104 relative, HeCon Ab = 100	B13
107 relative, HeCon Ab = 100	B14
106 relative, HeCon Ab = 100	B15
104 relative, HeCon Ab = 100	B16
105 relative, HeCon Ab = 100	B17

He/Con_1a	Binder
108 relative, HeCon Ab = 100	B18
112 relative, HeCon Ab = 100	B19
105 relative, HeCon Ab = 100	B20
104 relative, HeCon Ab = 100	B21
103 relative, HeCon Ab = 100	B22
109 relative, HeCon Ab = 100	B23
106 relative, HeCon Ab = 100	B24
103 relative, HeCon Ab = 100	B25
107 relative, HeCon Ab = 100	B26
110 relative, HeCon Ab = 100	B27
106 relative, HeCon Ab = 100	B28
109 relative, HeCon Ab = 100	B29
102 relative, HeCon Ab = 100	B30
107 relative, HeCon Ab = 100	B31
109 relative, HeCon Ab = 100	B32
106 relative, HeCon Ab = 100	B33
106 relative, HeCon Ab = 100	B34
